Paper doi:10.1101/2019.12.16.876623 (bioRxiv, 2019)

B1: Exo1-Flag (recombinant, untreated) (natural protein, yeast, UniProt P39875 1-702, looked up)
chain: MGIQGLLPQLKPIQNPVSLRRYEGEVLAIDGYAWLHRAACSCAYELAMGKPTDKYLQFFIKRFSLLKTFKVEPYLVFDGDAIPVKKSTESKRRDKRKENKAIAERLWACGEKKNAMDYFQKCVDITPEMAKCIICYCKLNGIRYIVAPFEADSQMVYLEQKNIVQGIISEDSDLLVFGCRRLITKLNDYGECLEICRDNFIKLPKKFPLGSLTNEEIITMVCLSGCDYTNGIPKVGLITAMKLVRRFNTIERIILSIQREGKLMIPDTYINEYEAAVLAFQFQRVFCPIRKKIVSLNEIPLYLKDTESKRKRLYACIGFVIHRETQKKQIVHFDDDIDHHLHLKIAQGDLNPYDFHQPLANREHKLQLASKSNIEFGKTNTTNSEAKVKPIESFFQKMTKLDHNPKVANNIHSLRQAEDKLTMAIKRRKLSNANVVQETLKDTRSKFFNKPSMTVVENFKEKGDSIQDFKEDTNSQSLEEPVSESQLSTQIPSSFITTNLEDDDNLSEEVSEVVSDIEEDRKNSEGKTIGNEIYNTDDDGDGDTSEDYSETAESRVPTSSTTSFPGSSQRSISGCTKVLQKFRYSSSFSGVNANRQPLFPRHVNQKSRGMVYVNQNRDDDCDDNDGKNQITQRPSLRKSLIGARSQRIVIDMKSVDERKSFNSSPILHEESKKRDIETTKSSQARPAVRSISLLSQFVYKGK
B2: Exo1-Flag (recombinant, treated with CDK1-cyclin B) (natural protein, yeast, UniProt P39875 1-702, looked up)
chain: B1 chain
modifications: phosphorylated in vitro with CDK1-cyclin B; sites not stated
B3: Exo1-Flag (recombinant, treated with lambda phosphatase) (natural protein, yeast, UniProt P39875 1-702, looked up)
chain: B1 chain
modifications: dephosphorylated with lambda phosphatase

What follows are binders tested against T1, His-MBP-Cdc5 T238D (S. cerevisiae, UniProt P32562 1-705, T238D) (assay: pull-down).
T1 sequence (looked up): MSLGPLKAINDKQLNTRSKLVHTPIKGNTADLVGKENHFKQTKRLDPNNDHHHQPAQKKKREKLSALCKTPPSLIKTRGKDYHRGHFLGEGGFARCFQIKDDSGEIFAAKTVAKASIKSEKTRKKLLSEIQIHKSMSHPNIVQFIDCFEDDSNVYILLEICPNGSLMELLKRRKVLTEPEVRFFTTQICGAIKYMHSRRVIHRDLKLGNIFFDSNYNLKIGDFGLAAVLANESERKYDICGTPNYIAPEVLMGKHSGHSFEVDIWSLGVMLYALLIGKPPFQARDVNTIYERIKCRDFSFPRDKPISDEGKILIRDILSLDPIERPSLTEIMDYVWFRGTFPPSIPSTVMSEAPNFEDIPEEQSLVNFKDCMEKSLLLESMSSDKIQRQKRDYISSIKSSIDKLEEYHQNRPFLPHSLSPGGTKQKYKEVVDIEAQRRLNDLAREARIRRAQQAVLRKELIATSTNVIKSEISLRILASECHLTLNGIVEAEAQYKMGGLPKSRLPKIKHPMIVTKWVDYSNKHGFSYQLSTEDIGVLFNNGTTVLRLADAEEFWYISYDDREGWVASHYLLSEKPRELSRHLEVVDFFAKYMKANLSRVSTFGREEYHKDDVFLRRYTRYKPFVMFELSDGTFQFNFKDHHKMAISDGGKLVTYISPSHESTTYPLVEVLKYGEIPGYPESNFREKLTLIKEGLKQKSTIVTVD

| Binder | binding result |
| --- | --- |
| B1 | binds |
| B2 | binds |
| B3 | binds |
